One experiment has as its target T1, human IL6 (human, UniProt P05231 30-212).
T1 construct: Bought recombinant protein
As to the kind of experiment: Biacore SPR, Fab captured by anti-light chain antibody, IL6 as analyte. Here is the method: Antibody libraries were selected against human VEGF (Peprotech catalogue number 100-20) and human IL6 (Peprotech catalogue number 200-06). Of the isolated parental antibody clones, IL6P and VEGFP were combined into the bi-specific antibody clone VH6L. […] To assess the affinities of parental and bi-specific antibodies, Biacore™ analysis was performed in order to analyze the binding behaviour of IL6P, VH6L and VEGFP. For this, an anti-light chain capture antibody was immobilized onto a CM5 chip using amine-coupling, resulting in 12000 RU. Fab fragments were captured to a level of 400-500 RU and a concentration series of IL6 and VEGF, ranging from 0 to 450 nM, was passed over the chip. As depicted in FIG. 7, clone IL6P binds to IL6, but not to VEGF, clone VEGFP binds to VEGF, but not to IL6, and the combined clone VH6L binds to both IL6 and VEGF.
A general note: SPR reads the build-up and loss of mass on a sensor chip optically.

The target of a further experiment is T2, HEL (UniProt P00698 19-147, biotinylated).
T2 construct: Control target of the ELISA
T2 sequence (P00698 19-147): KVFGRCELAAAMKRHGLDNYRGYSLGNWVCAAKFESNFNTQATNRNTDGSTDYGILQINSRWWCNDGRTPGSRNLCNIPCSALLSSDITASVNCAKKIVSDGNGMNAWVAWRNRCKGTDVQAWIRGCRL
As to the kind of experiment: ELISA, biotinylated target (20 nM) on streptavidin plates, Fab in culture supernatant. Here is the method:
To test the specificity of antibodies selected from Lib1 and Lib2 libraries against one target and the specificity of bi-specific antibodies designed to bind both targets, Enzyme-linked immunosorbent assays (ELISAs) were performed using standard methods. Briefly, Nunc Maxisorp plates were prepared by coating with Streptavidin dissolved in 1×PBS, binding 20 nM of biotinylated targets (GST, MBP, HEL or VEGF) in PBS-T (0.3% Tween-20 dissolved in 1×PBS) and blocking with 5% skimmed milk powder in PBS-T. Thereafter, 50 μl of E. coli TG1 culture supernatant expressing antibody clones as soluble Fab fragments in microtiter plates were added, followed by detection of bound Fab fragments using goat anti-human kappa light chain polyclonal antibody (Sigma) or mouse anti-Strep tag antibody (IBA) specific for a Strep-Il tag fused to the C-terminus of the heavy chain in the soluble Fab expression construct. Secondary antibodies were detected using HRP-labeled tertiary antibodies, ELISAs were developed using TMB substrate (KPL), and signal was quantified using a Victor plate reader from PerkinElmer set to 450 nm. […] None of the clones bound the control targets HEL or VEGF (FIG. 5). Experiments were performed in duplicate using two independent colonies for each Fab.
(ELISA stands for enzyme-linked immunosorbent assay.)

A word on the Kd: it is the free concentration of one partner at which half of the binding sites on the other are occupied at equilibrium, for simple one-to-one binding. A high value points to weaker binding.

B1: IL6P (Fab, V domains shown)
VH: EVQLVESGGGLVQPGGSLRLSCAASGFTFSSYAMSWIRQAPGKGLEWIGQISGSGGSTVYNYNVLGRFTISRDNSKNTLYLQMNSLRAEDTAVYYCARDSGYFDIWGQGTLVTVSS
VL: NIQKTQSPSSLSASVGDRVTITCRALWHISSYLAWYQQKPGKAPKLLIYAASSLYSGVPSRFSGSGSGTDFTLTISSLQPEDFATYYCQQYSGLPYTFGQGTKVEIKR
Regarding B1, in the experiment with human IL6, the Kd came to 38 nM.

B2: Dummy 1 Fab (Fab, V domains shown)
VH: EVQLVESGGGLVQPGGSLRLSCAASGFTFSSYAMSWIRQAPGKGLEWIGQISGSGGSTYYNDNVLGRFTISRDNSKNTLYLQMNSLRAEDTAVYYCARDSGYFDIWGQGTLVTVSS
VL: DTQMTQSPSSLSASVGDRVTITCRASQSISSYLAWYQQKPGKAPKLLIYAASSLYSGVPSRFSGSGSGTDFTLTISSLQPEDFATYYCQQYSSLPYTFGQGTKVEIK
notes: Tested as soluble Fab in E. coli TG1 culture supernatant; Strep-II tag fused to the C-terminus of the heavy chain
For B2, in the experiment with HEL, the binding result was “no binding”.

B3: VH6L (bispecific antibody, V domains shown)
VH: YYQLVESGGGLVQPGGSLRLSCAADGFLFSGYAMSWIRQAPGKGLEWIGQISGSGGSTVYNYNVLGRFTISRDNSKNTLYLQMNSLRAEDTAVYYCARDTGYFDHWGQGTLVTVSS
VL: NIQKTQSPSSLSASVGDRVTITCRALWHISSYLAWYQQKPGKAPKLLIYAASHLHYGVPSRFSGSGSGTDFTLTISSLQPEDFATYYCQQYSGLPYTFGQGTKVEIK
notes: Combination of IL6P and VEGFP; two paratopes in one VH-VL pair; tested as Fab fragment; also called bi-specific antibody clone VH6L; combined clone VH6L
In the experiment with human IL6, B3 had a Kd of 40 nM.

The values are drawn from patent US20140206846A1 (published 2014).
